In patent publication US20160264649A1:

Key:
Assay in all cases: cell-based or functional assay
[1] = target: HIV-1 MGRM-F1-014 Env (HIV-1)
[2] = target: HIV-1 LAVI_C3 Env on pseudovirus (HIV-1)
[3] = target: HIV-1 APV_17 Env on pseudovirus (HIV-1)
[4] = target: HIV-1 MGRM-AE-004 Env (HIV-1)
[5] = target: HIV-1 6535.3 (Acute) Env on pseudovirus (HIV-1)
[6] = target: HIV-1 MGRM-AE-008 Env (HIV-1)
[7] = target: HIV-1 LAVIC_18 Env on pseudovirus (HIV-1)
[8] = target: HIV-1 NL43 Env on pseudovirus (HIV-1)
[9] = target: HIV-1 MGRM-C-014 Env on pseudovirus (HIV-1)
[10] = target: HIV-1 MGRM-AG-003 Env (HIV-1)
[11] = target: HIV-1 MGRM-F1-020 Env (HIV-1)
[12] = target: HIV-1 92TH021 Env (HIV-1)
[13] = target: HIV-1 MGRM-D-026 Env (HIV-1)
[14] = target: HIV-1 MGRM-C-017 Env on pseudovirus (HIV-1)
[15] = target: HIV-1 MGRM-G-024 Env (HIV-1)
[16] = target: HIV-1 MGRM-AG-002 Env (HIV-1)
[17] = target: HIV-1 MGRM-C-022 Env on pseudovirus (HIV-1)
[18] = target: HIV-1 MGRM-Chronic-B-010 Env on pseudovirus (HIV-1)
[19] = target: HIV-1 98CN009 Env on pseudovirus (HIV-1)
[20] = target: HIV-1 MGRM-F1-022 Env (HIV-1)
[21] = target: HIV-1 MGRM-D-005 Env (HIV-1)
[22] = target: HIV-1 MGRM-C-005 Env on pseudovirus (HIV-1)
[23] = target: HIV-1 MGRM-C-012 Env on pseudovirus (HIV-1)
[24] = target: HIV-1 MGRM-F1-010 Env (HIV-1)
[25] = target: HIV-1 MGRM-C-024 Env on pseudovirus (HIV-1)
[26] = target: HIV-1 94UG103 Env (HIV-1)
[27] = target: HIV-1 MGRM-G-019 Env (HIV-1)
[28] = target: HIV-1 MGRM-AG-001 Env (HIV-1)
[29] = target: HIV-1 MGRM-F1-012 Env (HIV-1)
[30] = target: HIV-1 IAVI-C18 Env (HIV-1)
[31] = target: HIV-1 PVO.4 (Acute) Env on pseudovirus (HIV-1)
HIV-1 CMU02 Env (HIV-1) = target: HIV-1 CMU02 Env (HIV-1)
[32] = target: HIV-1 TRO.11 (Acute) Env on pseudovirus (HIV-1)
[33] = target: HIV-1 MGRM-AE-001 Env (HIV-1)
[34] = target: HIV-1 IAVI-C22 Env (HIV-1)
[35] = target: HIV-1 MGRM-Chronic-B-001 Env on pseudovirus (HIV-1)
[36] = target: HIV-1 MGRM-G-004 Env (HIV-1)
[37] = target: HIV-1 92BR020 Env on pseudovirus (HIV-1)
[38] = target: HIV-1 VLGCB3 Env on pseudovirus (HIV-1)
[39] = target: HIV-1 MGRM-F1-008 Env (HIV-1)
[40] = target: HIV-1 MGRM-C-002 Env on pseudovirus (HIV-1)
[41] = target: HIV-1 MGRM-D-021 Env (HIV-1)
[42] = target: HIV-1 98CN006 Env on pseudovirus (HIV-1)
[43] = target: HIV-1 MGRM-Chronic-B-003 Env on pseudovirus (HIV-1)
aMLV envelope = target: aMLV envelope
[44] = target: HIV-1 MGRM-D-022 Env (HIV-1)
[45] = target: HIV-1 MGRM-C-001 Env on pseudovirus (HIV-1)
[46] = target: HIV-1 MGRM-AG-008 Env (HIV-1)
[47] = target: HIV-1 MGRM-C-013 Env on pseudovirus (HIV-1)
[48] = target: HIV-1 MGRM-D-014 Env (HIV-1)
[49] = target: HIV-1 MGRM-AG-006 Env (HIV-1)

1496_C09 (PG9) (TCN-109) (antibody)
IC50 (pseudovirus neutralization) [1]: 0.01 µg/mL | IC50 [2]: 1.45 µg/mL | IC50 [3]: 14.6 µg/mL | IC50 (µg/ml), pseudovirus neutralization [4]: 0.01 µg/mL | IC50 [5]: 0.22 µg/mL | IC50 (µg/ml), pseudovirus neutralization [6]: 10.6 µg/mL | IC50 [7]: 0.1 µg/mL | IC50 [8]: 0.32 µg/mL | IC50 [9]: 0.64 µg/mL | IC50 (µg/ml), pseudovirus neutralization [10]: 9.71 µg/mL | IC50 (pseudovirus neutralization) [11]: 4.55 µg/mL | IC50 (µg/ml), pseudovirus neutralization [12]: 0.09 µg/mL | neutralization IC50 [12]: 0.111 µg/mL | neutralization IC90 [12]: 1.99 µg/mL | IC50 (µg/ml), pseudovirus neutralization [13]: 17.5 µg/mL | IC50 [14]: 1.52 µg/mL | IC50 (µg/ml), pseudovirus neutralization [15]: 0.07 µg/mL | IC50 (µg/ml), pseudovirus neutralization [16]: 0.04 µg/mL | IC50 [17]: 0.19 µg/mL | IC50 [18]: 0.004 µg/mL | IC50 [19]: 1.07 µg/mL | IC50 (pseudovirus neutralization) [20]: 0.06 µg/mL | IC50 (µg/ml), pseudovirus neutralization [21]: 0.59 µg/mL | IC50 [22]: 2.98 µg/mL | IC50 [23]: 0.24 µg/mL | IC50 (pseudovirus neutralization) [24]: 0.03 µg/mL | IC50 [25]: 0.22 µg/mL | neutralization IC50 [26]: 0.173 µg/mL | neutralization IC90 [26]: 3.37 µg/mL | IC50 (µg/ml), pseudovirus neutralization [27]: 0.67 µg/mL | IC50 (µg/ml), pseudovirus neutralization [28]: 8.83 µg/mL | IC50 (pseudovirus neutralization) [29]: 0.01 µg/mL | neutralization IC50 [30]: 0.0535 µg/mL | neutralization IC90 [30]: 0.866 µg/mL | IC50 [31]: 4.01 µg/mL | IC50 (µg/ml), pseudovirus neutralization (HIV-1 CMU02 Env (HIV-1)): 7.69 µg/mL | IC50 [32]: 5.43 µg/mL | IC50 (µg/ml), pseudovirus neutralization [33]: 2.97 µg/mL | neutralization IC50 [34]: 24.9 µg/mL

2F5 (antibody)
IC50 [35]: 0.55 µg/mL | IC50 (pseudovirus neutralization) [1]: 15.1 µg/mL | IC50 (µg/ml), pseudovirus neutralization [36]: > 50 µg/mL | IC50 [2]: > 50 µg/mL | IC50 [3]: 4.61 µg/mL | IC50 (µg/ml), pseudovirus neutralization [4]: 0.98 µg/mL | IC50 [37]: > 50 µg/mL | IC50 [38]: > 50 µg/mL | IC50 [5]: 2.76 µg/mL | IC50 (pseudovirus neutralization) [39]: 1.61 µg/mL | IC50 (µg/ml), pseudovirus neutralization [6]: > 50 µg/mL | IC50 [7]: > 50 µg/mL | IC50 [8]: 2.02 µg/mL | IC50 [40]: 44.7 µg/mL | IC50 [9]: > 50 µg/mL | IC50 (µg/ml), pseudovirus neutralization [41]: > 50 µg/mL | IC50 (µg/ml), pseudovirus neutralization [10]: 0.14 µg/mL | IC50 [42]: > 50 µg/mL | IC50 (pseudovirus neutralization) [11]: 0.59 µg/mL | neutralization IC50 [12]: 1.51 µg/mL | neutralization IC90 [12]: 18.8 µg/mL | IC50 [43]: 1 µg/mL | neutralization IC50 (aMLV envelope): > 50 µg/mL | neutralization IC90 (aMLV envelope): > 50 µg/mL | IC50 (µg/ml), pseudovirus neutralization [13]: 4.37 µg/mL | IC50 [14]: > 50 µg/mL | IC50 (µg/ml), pseudovirus neutralization [15]: 1.07 µg/mL | IC50 (µg/ml), pseudovirus neutralization [16]: 0.54 µg/mL | IC50 [17]: > 50 µg/mL | IC50 [18]: 0.96 µg/mL | IC50 [19]: > 50 µg/mL | IC50 (µg/ml), pseudovirus neutralization [44]: 8.45 µg/mL | IC50 (pseudovirus neutralization) [20]: 1.26 µg/mL | IC50 (µg/ml), pseudovirus neutralization [21]: > 50 µg/mL | IC50 [22]: > 50 µg/mL | IC50 [23]: > 50 µg/mL | IC50 [45]: > 50 µg/mL | IC50 (pseudovirus neutralization) [24]: 14.6 µg/mL | IC50 (µg/ml), pseudovirus neutralization [46]: 0.54 µg/mL | IC50 [25]: > 50 µg/mL | neutralization IC50 [26]: 3.79 µg/mL | neutralization IC90 [26]: 46.6 µg/mL | IC50 (µg/ml), pseudovirus neutralization [27]: > 50 µg/mL | IC50 (µg/ml), pseudovirus neutralization [28]: 0.75 µg/mL | IC50 (pseudovirus neutralization) [29]: > 50 µg/mL | IC50 [47]: 18.4 µg/mL | IC50 (µg/ml), pseudovirus neutralization [48]: 2.22 µg/mL | neutralization IC50 [30]: > 50 µg/mL | IC50 [31]: > 50 µg/mL | IC50 (µg/ml), pseudovirus neutralization (HIV-1 CMU02 Env (HIV-1)): 0.6 µg/mL | neutralization IC50 (HIV-1 CMU02 Env (HIV-1)): 0.38 µg/mL | neutralization IC90 (HIV-1 CMU02 Env (HIV-1)): 12.2 µg/mL | IC50 [32]: > 50 µg/mL | IC50 (µg/ml), pseudovirus neutralization [33]: 0.29 µg/mL | neutralization IC50 [34]: > 50 µg/mL | neutralization IC90 [34]: > 50 µg/mL | IC50 (µg/ml), pseudovirus neutralization [49]: 0.85 µg/mL
